Substrate in this data set: C/C=C1/[C@H](O[C@@H]2O[C@H](CO)[C@@H](O)[C@H](O)[C@H]2O)OC=C(C(=O)OC)[C@H]1CC(=O)OCCc1ccc(O)c(O)c1
The data set can be described thus: HPLC determination of hydrolysed oleuropein. In kind it is biochemical, Olea europaea. Conditions: free purified recombinant enzyme; standard assay.

B1: OepGLU (recombinant olive β-glucosidase) (Olea europaea) (protein)
chain: MDIQSNVLTITSGSSPTDTSSNGQAAKSTKERIKRSDFPSDFVFGAATASYQVEGAWNEGGKGMSNWDYFTQSQPGGISDFSNGTIAIDHFNMFKDDVVVMKKLGLKAYRFSLSWPRILPGGRLCHGVSKEGVQFYNDLIDALLAADIEPYITIFHWDIPQCLQLEYGGFLHERVVQDFIEYSEICFWEFGDRVKYWITLNEPWSFTVQGYVAGAFPPNRGVTPKDTEETKKHARLHRGGGKLLTAFKYGNPGTEPYKVAHNLILCHAHAVDIYRTKYQESQGGKIGITNCISWNEPLTDSQEDKDAATRGNDFMLGWFVEPVVTGEYPESMIKNVGDRLPKFSEKEEKLVKGSYDFLGINYYTSTYTSDDPTKPTTDSYLTDSRTKTSHERNKVPIGAQAGSDWLYIVPWGIYRVMVDMKKRYNDPVIYITENGVDEVNDKSKTSTEALKDDIRIHYHQEHLYYLKLAMDQGVNLKGYFIWSLFDNFEWAAGFSVRFGVMYVDYANGRYTRLPKRSAVWWRNFLTKPTAVPLKNEPEKSEDRRKRLRGST
For B1, the Km (commonly the concentration of substrate that gives half-maximal velocity) turned out to be 26.8 mM.

For the origin of these results see article PMC5682033, “An Oleuropein β-Glucosidase from Olive Fruit Is Involved in Determining the Phenolic Composition of Virgin Olive Oil” (Frontiers in Plant Science, 2017).
